Measured values reported in patent publication US20250376535A1 (BEIJING STARMAB BIOMED TECHNOLOGY, published 2025).
Read-outs that look alike come from different tables or passages of the source.

How the values were obtained:
[1] = molecular target: T1, recombinant human CD40-Fc (human, UniProt P25942 21-193); test: ELISA, CD40-Fc coated, VHH at 8 nM
T1 construct: also called rh-CD40-Fc; CD40-hFc
Experimental: (§1) After four times washing with PBST, the plate was incubated with detecting antibody anti-his-HRP (1:4000 dilution) 100 μl per well for one hour with shaking at 60 rpm. The plate was developed with 100 μL of TMB per well in the dark and then stopped by 50 μL of stop solution per well.

[2] = molecular target: T1, recombinant human CD40-Fc; test: ELISA, CD40-Fc coated, VHH at 40 nM
Experimental: as §1

[3] = molecular target: T1, recombinant human CD40-Fc; test: ELISA, CD40-Fc coated, VHH at 1.6 nM
Experimental: as §1

[4] = molecular target: T1, recombinant human CD40-Fc; test: ELISA, CD40-Fc coated, VHH at 200 nM
Experimental: as §1

[5] = molecular target: T1, recombinant human CD40-Fc; test: ELISA, CD40-Fc coated, VHH at 0.32 nM
Experimental: as §1

[6] = molecular target: T1, recombinant human CD40-Fc; test: ELISA, CD40-Fc coated, VHH at 1000 nM
Experimental: as §1

[7] = molecular target: T1, recombinant human CD40-Fc; test: ELISA, CD40-Fc coated, VHH at 0.013 nM
Experimental: as §1

[8] = molecular target: T1, recombinant human CD40-Fc; test: ELISA, CD40-Fc coated, VHH at 0.064 nM
Experimental: as §1

[9] = molecular target: T1, recombinant human CD40-Fc; test: ELISA, CD40-Fc coated, VHH at 0.0026 nM
Experimental: as §1

[10] = molecular target: T2, Human CD40 antigen (recombinant, BLI) (human, UniProt P25942 21-193); test: BLI, VHH-His on anti-His tips, human CD40 in solution;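 note: kinetics measured at 30 °C in PBS pH 7.2, association tracked for 200 s, then dissociation followed in PBS lacking CD40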
T2 construct: also called rh-CD40
Experimental: Bio-Layer Interferometry (BLI) kinetic binding analysis. […] Affinity measurements were performed with Gator equipped with Anti-Penta-His capture (HIS1K) biosensor tips. The assay was performed at 30° C. in 1×PBS buffer (Gibco®, PBS pH7.2). Samples were agitated at 1000 rpm. Prior to analysis, sensors were humidified for 15 min. […] Sensor data was collected throughout the experiments, processed, and analyzed using the Gator data analysis software.
Briefly, purified anti-CD40 VHH was tested for its binding capacity with HIS1K sensor tips. Tips were loaded using 20 μg/ml of anti-CD40 VHH. Loading proceeded for 300 sec resulting in capture levels of between 1.8 and 2 nm. […] Association was initiated and monitored for 200 sec, after which tips were transferred to 1×PBS buffer without CD40 protein in order to monitor dissociation.

[11] = molecular target: T1, recombinant human CD40-Fc; test: blocking ELISA: CD40L-mFc (1.m18) coated, VHH premixed with CD40-hFc, bound CD40-hFc detected with anti-human IgG Fc-HRP, OD450
Experimental: The 96-well plate was coated with 100 μL of 1 μg/mL CD40L-mFc prepared in antigen coating buffer overnight at 4° C., then blocked with 2% BSA for 1 hour at 25° C. […] The plate was washed with PBST four times, then incubated with Mouse anti-human IgG Fc-HRP at 25° C. for 1 hour. After four times of wash with PBST, the plate was developed with 100 μL of TMB per well for 10 to 20 min in the dark and then stopped by adding 50 μL of Stop Solution.

Human 41BB antigen (BLI) = molecular target: T3, Human 41BB antigen (BLI) (human, UniProt Q07011 24-183); test: BLI, VHH-His on anti-His tips, human 41BB in solution;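 note: association tracked for 200 s, after which dissociation was followed in 1×PBS free of 41BB protein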
T3 construct: also called 41BB protein
Experimental: Tips were loaded using 20 μg/ml of anti-41BB VHH. Loading proceeded for 300 sec resulting in capture levels of between 1.8 and 2 nm. […] Association was initiated and monitored for 200 sec, after which tips were transferred to 1×PBS buffer without 41BB protein, in order to monitor dissociation.

4-1BB Fc = molecular target: T4, 4-1BB Fc (human, UniProt Q07011 24-183); test: blocking ELISA: 41BBL-mFc (1.m32) coated, VHH premixed with 41BB-hFc, bound 41BB-hFc detected with anti-human IgG Fc-HRP, OD450
T4 construct: also called rh-41BB; 41BB-hFc
Experimental: The 96-well plate was coated with 100 μL of 1 μg/mL 41BBL-mFc prepared in antigen coating buffer overnight at 4° C., then blocked with 2% BSA for 1 hour at 25° C. […] The plate was washed with PBST four times, then incubated with Mouse anti-human IgG Fc-HRP at 25° C. for 1 hour. After four times of wash with PBST, the plate was developed with 100 μL of TMB per well for 10 to 20 min in the dark and then stopped by adding 50 μL of Stop Solution.

[12] = molecular target: T5, recombinant human OX40-Fc (human, UniProt P43489 29-214); test: ELISA, OX40-Fc coated, VHH at 8 nM
T5 construct: also called rh-OX40-Fc; human OX40 hFC (R & D systems)
T5 sequence: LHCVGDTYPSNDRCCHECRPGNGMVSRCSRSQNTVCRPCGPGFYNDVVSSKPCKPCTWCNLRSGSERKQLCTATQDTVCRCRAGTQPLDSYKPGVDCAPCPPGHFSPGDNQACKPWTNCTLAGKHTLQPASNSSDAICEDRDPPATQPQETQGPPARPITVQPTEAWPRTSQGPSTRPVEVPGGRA
Experimental: (§2) After four times washing with PBST, the plate was incubated with detecting antibody anti-his-HRP (1:4000 dilution) 100 μl per well for one hour with shaking at 60 rpm. The plate was developed with 100 μL of TMB per well in the dark and then stopped by 50 μL of stop solution per well. […] Data was analyzed using GraphPad Prisma 9.1.

[13] = molecular target: T5, recombinant human OX40-Fc; test: ELISA, OX40-Fc coated, VHH at 40 nM
Experimental: as §2

[14] = molecular target: T5, recombinant human OX40-Fc; test: ELISA, OX40-Fc coated, VHH at 1.6 nM
Experimental: as §2

[15] = molecular target: T5, recombinant human OX40-Fc; test: ELISA, OX40-Fc coated, VHH at 200 nM
Experimental: as §2

[16] = molecular target: T5, recombinant human OX40-Fc; test: ELISA, OX40-Fc coated, VHH at 0.32 nM
Experimental: as §2

[17] = molecular target: T5, recombinant human OX40-Fc; test: ELISA, OX40-Fc coated, VHH at 1000 nM
Experimental: as §2

[18] = molecular target: T5, recombinant human OX40-Fc; test: ELISA, OX40-Fc coated, VHH at 0.064 nM
Experimental: as §2

[19] = molecular target: T5, recombinant human OX40-Fc; test: ELISA, OX40-Fc coated, VHH at 0.0128 nM
Experimental: as §2

[20] = molecular target: T5, recombinant human OX40-Fc; test: BLI, VHH-His on anti-His tips, OX40 hFc in solution;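 note: kinetics recorded at 30 °C in PBS pH 7.2, with 200 s of association followed by dissociation monitored in PBS lacking the OX40 protein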
Experimental: Bio-Layer Interferometry (BLI) kinetic binding analysis. […] Affinity measurements were performed with Gator equipped with Anti-Penta-His capture (HIS1K) biosensor tips. The assay was performed at 30° C. in 1×PBS buffer (Gibco®, PBS pH7.2). Samples were agitated at 1000 rpm. Prior to analysis, sensors were humidified for 15 min. Purified anti-OX40 VHH was tested for its binding capacity with HIS1K sensor tips. Tips were loaded using 20 μg/ml of anti-OX40 VHH. Loading proceeded for 300 s resulting in capture levels of between 1.8 and 2 nm. […] Association was initiated and monitored for 200 sec, after which tips were transferred to 1×PBS buffer without Factor protein (Gibco, PBS pH 7.2), in order to monitor dissociation. Sensor data was collected throughout the experiments, processed, and analyzed using the Gator data analysis software.

[21] = molecular target: T5, recombinant human OX40-Fc; test: blocking ELISA, OX40-hFc premixed with VHH on coated OX40L-mFc; full blocker; full blocker
Experimental: (§3) Blocking Assay. The 96-well plate was coated with 100 μL of 1 μg/mL OX40L-mFc prepared in antigen coating buffer overnight at 4° C., then blocked with 2% BSA for 1 hour at 25° C. […] The plate was washed with PBST four times, then incubated with Mouse anti-human IgG Fc-HRP at 25° C. for 1 hour. After four times of wash with PBST, the plate was developed with 100 μL of TMB per well for 10 to 20 min in the dark and then stopped by adding 50 μL of Stop Solution.

[22] = molecular target: T5, recombinant human OX40-Fc; test: blocking ELISA, OX40-hFc premixed with VHH on coated OX40L-mFc; partial blocker; partial blocker
Experimental: as §3

murine serum albumin [23] = molecular target: T6, murine serum albumin (murine, UniProt P07724 25-608); test: ELISA, murine serum albumin coated, VHH 0.128 nM
T6 construct: As antigen 'MSA' means murine serum albumin; the VHHs also carry the label MSA; also called MSA
Experimental: The 96-well plate was coated with 100 μL per well of HSA or MSA (murine serum albumin) prepared at 1 μg/ml in coating buffer at 4° C. overnight, then blocked with 200 μL per well of casein for one hour at room temperature. MSA VHHs were made into a series of dilutions and added to HSA or MSA coated plate for one hour incubation. The plate was washed with PBST four times, then incubated with Streptavidin conjugated with HRP at 25° C. for 1 hour. After three times of wash with 250 μL PBST per well, the plate was developed with 100 μL of TMB per well for 10 to 20 min in the dark and then stopped by adding 100 μL of Stop Solution.

human serum albumin [24] = molecular target: T7, human serum albumin (human, UniProt P02768 25-609); test: BLI (Gator), His-tagged VHH on anti-His sensor, HSA 100 nM in solution
T7 construct: also called HSA
Experimental: (§4) Kinetic binding analysis of MSA VHHs were performed with Gator Prime system equipped with analyze software. […] The experiments were done at 30° C. Prior to analysis, sensors were socked in Q buffer for 600 sec with shaking at 1000 rpm, and then 2 μM of HIS tagged MSA VHHs were loaded to Anti-His sensors with shaking at 400 rpm for 120 sec. Loaded sensors were transferred into Q buffer for 60 sec. Association of HSA or MSA at 100 nM was initiated and monitored for 120-180 sec with shaking at 1000 rpm, and finally dissociation in Q buffer for 120-180 sec with 1000 rpm shaking. Software V2.0 (Gator Bio) was used for data analysis. The on-rate (Kₒₙ) and off-rate (Kd) were determined by fitting of the association and dissociation phases of each sample. The mathematical model used assumes a 1:1 stoichiometry, fitting only one analyte in solution binding to one binding site on the surface. The equilibrium dissociation constant (KD), a measure for affinity, was then calculated as the ratio of Kd and Kₒₙ.

human serum albumin [25] = molecular target: T7, human serum albumin; test: as above; remark: listed apart in the source
Experimental: as §4

murine serum albumin [26] = molecular target: T6, murine serum albumin; test: BLI (Gator), His-tagged VHH on anti-His sensor, murine serum albumin 100 nM in solution
Experimental: as §4

murine serum albumin [27] = molecular target: T6, murine serum albumin; test: as above; remark: listed apart in the source
Experimental: as §4

T1 sequence (P25942 21-193): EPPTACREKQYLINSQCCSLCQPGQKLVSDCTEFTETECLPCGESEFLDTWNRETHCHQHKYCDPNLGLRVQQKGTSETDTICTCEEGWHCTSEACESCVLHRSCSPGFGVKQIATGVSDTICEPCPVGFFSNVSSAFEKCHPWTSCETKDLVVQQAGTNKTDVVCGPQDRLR
T2 sequence (P25942 21-193 limits assumed): as the sequence (P25942 21-193) above
T3 sequence (Q07011 24-183 limits assumed): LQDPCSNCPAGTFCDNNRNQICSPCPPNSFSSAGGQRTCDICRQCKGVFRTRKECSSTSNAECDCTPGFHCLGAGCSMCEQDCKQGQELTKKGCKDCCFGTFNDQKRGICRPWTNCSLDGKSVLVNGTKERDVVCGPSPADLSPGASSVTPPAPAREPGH
T4 sequence (Q07011 24-183): as the sequence (Q07011 24-183 limits assumed) above

Binder	OD450 [12]	OD450 [13]	OD450 [14]	OD450 [15]	OD450 [16]	OD450 [17]	OD450 [18]	OD450 [19]	Kd [20] [nM]	koff [20] [s⁻¹]	kon [20] [M⁻¹ s⁻¹]	EC50 [21] [nM]	other results
pgDD40-HZ-24 (VHH, not shown: small tags and cut ends, also called pgDD40-HG-24) VHH: EVQLVESGGGSVQAGGSLRLSCAASLSTFSNYRMGWFRRAPGKERELVARIEPHGVVDYGDSVKGRFTISRDNAKNTVTVYLHMNSLKPEDTAVYYCNALRLISGRYDPLFSSWGQGTQVTVSS													OD450 [1]: 1.7; OD450 [2]: 1.71; OD450 [3]: 0.903; OD450 [4]: 1.84; OD450 [5]: 0.251; OD450 [6]: 1.81; OD450 [7]: 0.055; OD450 [8]: 0.084; OD450 [9]: 0.078; Kd [10]: < 0.001 nM; koff [10]: 1e-05 s⁻¹; kon [10]: 607000 M⁻¹ s⁻¹; IC50 (read off the curve) [11]: ~20 nM
4-1BB-59 (VHH, not shown: small tags and cut ends) VHH: EVQLVESGGGLVQPGESLRLSCAASGDTVSGYVMLWWRQAPGKERELVAAISSVGYTYYTDSVKGRFTISRDNAKNTVYLQMNSLKPEDTAVYYCAADPASISTRSAYWGQGTQVTVSS													Kd (Human 41BB antigen (BLI)): 2.35 nM; koff (Human 41BB antigen (BLI)): 0.00121 s⁻¹; kon (Human 41BB antigen (BLI)): 512000 M⁻¹ s⁻¹; IC50 (read off the curve) (4-1BB Fc): ~0.5 nM
pgXX88-10 (VHH, not shown: small tags and cut ends) VHH: EVQLVESGGGLVQAGESLRLSCSASGSIRLNAVGWFRQAPVNQRLMVATITHNNSTNYADSVQGRFTIARDDAKNTVTLQMNSLKPEDTAVYMCKVYQLPVPISSHDDYWGQGTQVTVSS	1.48	1.54	1.46	1.61	0.993	1.62	0.369	0.119	< 0.001	1e-06	662000	0.12	
pgXX88-SZ-4 (VHH, not shown: small tags and cut ends, also called ppXX88-SZ-4) VHH: QVQLVESGGGLAQPGSSLRLSCTASGTVFSILSATWFRQAPGKAHEARELVAFISSDGVSMHADSVKGRFTISRDNAASTVYLQMDNLQPEDTAVYFCKLSNSMMSLEYWGRGTQVTVSS	1.12	1.49	0.463	1.58	0.126	1.78	0.076	0.062	0.185	8.73e-05	472000		EC50 [22]: 1.98 nM
pgXX88-SZ-15 (VHH, not shown: small tags and cut ends) VHH: QVQLVESGGGLVQPGGSLRLSCSPSEGAFKMLTTGWFRQVLGKEREFVSAISWGGGATYYADSVKGRFTVSRDNAKNTVYLQMNSLKPEDTAVYYCAVDTGNGVATNIRSQSRYDYWGQGTQVTVSS	1.89	1.95	1.66	1.94	0.736	2.12	0.166	0.068	0.48	0.000259	539000	0.12	
MSA4 (VHH, Llama single domain antibody with C-terminal His-tag, made in HEK293; not shown: C-terminal His-tag) VHH: EVQLVEFGGGLVQAGGSLRLSCAASGRTDSAYRMGWFRQAPGKEREFVSAINWSDGRTVYLDSVKGRFTISRDNAKNMVYLQMNSLKPEDTAVYYCAADPDSRLYYTVPQNYDYWGQGTQVTVSS													ELISA OD450 (murine serum albumin [23]): 0.07; Kd (human serum albumin [24]): 11.3 nM; koff (human serum albumin [24]): 0.00101 s⁻¹; kon (human serum albumin [24]): 89600 M⁻¹ s⁻¹; Kd (human serum albumin [25]): 7.16 nM; koff (human serum albumin [25]): 0.000752 s⁻¹; kon (human serum albumin [25]): 105000 M⁻¹ s⁻¹; Kd (murine serum albumin [26]): 4.49 nM; koff (murine serum albumin [26]): 0.000644 s⁻¹; kon (murine serum albumin [26]): 143000 M⁻¹ s⁻¹; Kd (murine serum albumin [27]): 8.83 nM; koff (murine serum albumin [27]): 0.0011 s⁻¹; kon (murine serum albumin [27]): 125000 M⁻¹ s⁻¹
